Source: patent US6111081A, “Lactoferrin variants and uses thereof” (Baylor College of Medicine, priority 1997, dated 2000)

Assay: pH-dependent release of 59Fe (dialysis, liquid scintillation counting)
Format: physicochemical
Conditions: 59Fe-saturated protein dialyzed against buffers pH 7-2, 48 hours, 4° C.; FIG. 4
Protocol: FIG. 4 depicts pH-dependent release of ^59 Fe from the lactoferrin amino-terminal (MN-2Y) and carboxy-terminal (MC-2Y) iron binding defective variants. ^59 Fe-saturated recombinant human lactoferrin (Rec hLF), MN-2Y and MC-2Y were dialyzed against buffers ranging in pH from 7-2. ^59 Fe remaining bound to the lactoferrin samples after dialysis was quantified by liquid scintillation counting and the Fe/protein molar ratio was determined. The data are represented as means ±S.E.M.
MN-2Y, MC-2Y and MNC-4Y (5 mg) were incubated with a four-fold excess of FeCl3 :^59 FeCl3 :NTA (400:1:8). Ward et al., 1995, Biotechnology 13:498-503. The samples were incubated at room temperature for 30 minutes. The samples were purified through NAP-10 column (Pharmacia, Piscataway, N.J.) followed by dialysis against 0.05 M Tris/HCl, 0.2 M NaCl, pH 7.0 for 12 hours to remove any non-specific iron bound to the lactoferrin variants. Iron bound to the lactoferrin variants after dialysis was quantified by liquid scintillation counting. The pH stability of iron binding for each of the lactoferrin variants was carried out as described previously. […]
The lactoferrin variants were saturated with ^59 FeCl3 and dialyzed against buffers ranging in pH from 7-2 for 48 hours at 4° C. The amount of iron remaining bound to the lactoferrin variants was quantified by liquid scintillation counting. […]

B1: recombinant lactoferrin: purified wild-type recombinant human lactoferrin expressed in Aspergillus awamori (protein, UniProt P02788 20-710, looked up)
Lactotransferrin: GRRRSVQWCAVSQPEATKCFQWQRNMRKVRGPPVSCIKRDSPIQCIQAIAENRADAVTLDGGFIYEAGLAPYKLRPVAAEVYGTERQPRTHYYAVAVVKKGGSFQLNELQGLKSCHTGLRRTAGWNVPIGTLRPFLNWTGPPEPIEAAVARFFSASCVPGADKGQFPNLCRLCAGTGENKCAFSSQEPYFSYSGAFKCLRDGAGDVAFIRESTVFEDLSDEAERDEYELLCPDNTRKPVDKFKDCHLARVPSHAVVARSVNGKEDAIWNLLRQAQEKFGKDKSPKFQLFGSPSGQKDLLFKDSAIGFSRVPPRIDSGLYLGSGYFTAIQNLRKSEEEVAARRARVVWCAVGEQELRKCNQWSGLSEGSVTCSSASTTEDCIALVLKGEADAMSLDGGYVYTAGKCGLVPVLAENYKSQQSSDPDPNCVDRPVEGYLAVAVVRRSDTSLTWNSVKGKKSCHTAVDRTAGWNIPMGLLFNQTGSCKFDEYFSQSCAPGSDPRSNLCALCIGDEQGENKCVPNSNERYYGYTGAFRCLAENAGDVAFVKDVTVLQNTDGNNNEAWAKDLKLADFALLCLDGKRKPVTEARSCHLAMAPNHAVVSRMDKVERLKQVLLHQQAKFGRNGSDCPDKFCLFQSETKNLLFNDNTECLARLHGKTTYEKYLGPQYVAGITNLKKCSTSPLLEACEFLRK
pH at which iron release begins: 5.0 | pH at which iron release is completed: 2.0
